Measurements published in the RNAGym collection of RNA variant scans (doi:10.1093/molbev/msab373).

B1: Azoarcus group I ribozyme (parent)
chain: GUGCCUUGCGCCGGGAAACCACGCAAGGGAUGGUGUCAAAUUCGGCGAAACCUAAGCGCCCGCCCGGGCGUAUGGCAACGCCGAGCCAAGCUUCGGCGCCUGCGCCGAUGAAGGUGUAGAGACUAGACGGCACCCACCUAAGGCAAACGCUAUGGUGAAGGCAUAGUCCAGGGAGUGGCGAAAGUCACACAAACCGG

Variants of: B1
Experiment: reverse-splicing fitness (ratio to wild type); higher = more active; in vitro selection; Mg2+ level not given
Method in brief: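 An in vitro group I ribozyme library with randomized positions was T7-transcribed and gel-purified. In triplicate, 10 pmol RNA in EPPS pH 7.5 was reacted with 50 pmoles of a 30-nt RNA substrate for 1 h at 37 °C across several added MgCl2 levels (1–48 mM), then stopped with EDTA. Products were reverse transcribed from a substrate-complementary primer, PCR-amplified and sequenced (HiSeq 4000). Fitness is a variant's read proportion after selection over that before, normalised to wild type.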

Variant	reverse-splicing fitness
GUGCCUUGCGCCGGGAAACCACGCAAGGGAUGGUGUCAAAUUCGGCGAAACCUAAGCGCCCGCCCGGGCGUAUGGCAACGCAGAGCCAAGCUUCGGCGCCUGCGCCGAUGAAGGUGUAGCGACUAGACGGCACCCACCUAAGGCAAACGAUAUGGUGAAGGCAUAGUCAAGGGAGCGGCGAAAGUCACACAAACCGG	0.0227
GUGCCUUGCGCCGGGAAACCACGCAAGGGAUGGUGUCAAAUUCGGCGAAACCUAAGCGCCCGCCCGGGCGUAUGGCAACGCAGAGCCAAGCUUCGGCGCCUGCGCCGAUGAAGGUGUAGCGACUAGACGGCACCCACCUAAGGCAAACGAUAUGGUGAAGGCAUAGUCAAGGGAGAGGCGAAAGUCACACAAACCGG	0.0213
GUGCCUUGCGCCGGGAAACCACGCAAGGGAUGGUGUCAAAUUCGGCGAAACCUAAGCGCCCGCCCGGGCGUAUGGCAACGCAGAGCCAAGCUUCGGCGCCUGCGCCGAUGAAGGUGUAGCGACUAGACGGCACCCACCUAAGGCAAACGAUAUGGUGAAGGCAUAGUCAAGGGAGGGGCGAAAGUCACACAAACCGG	0.00801
GUGCCUUGCGCCGGGAAACCACGCAAGGGAUGGUGUCAAAUUCGGCGAAACCUAAGCGCCCGCCCGGGCGUAUGGCAACGCAGAGCCAAGCUUCGGCGCCUGCGCCGAUGAAGGUGUAGCGACUAGACGGCACCCACCUAAGGCAAACGGUAUGGUGAAGGCAUAGUCAAGGGAGCGGCGAAAGUCACACAAACCGG	0.0129
GUGCCUUGCGCCGGGAAACCACGCAAGGGAUGGUGUCAAAUUCGGCGAAACCUAAGCGCCCGCCCGGGCGUAUGGCAACGCAGAGCCAAGCUUCGGCGCCUGCGCCGAUGAAGGUGUAGCGACUAGACGGCACCCACCUAAGGCAAACGGUAUGGUGAAGGCAUAGUCAAGGGAGGGGCGAAAGUCACACAAACCGG	0.00817
GUGCCUUGCGCCGGGAAACCACGCAAGGGAUGGUGUCAAAUUCGGCGAAACCUAAGCGCCCGCCCGGGCGUAUGGCAACGCAGAGCCAAGCUUCGGCGCCUGCGCCGAUGAAGGUGUAGCGACUAGACGGCACCCACCUAAGGCAAACGGUAUGGUGAAGGCAUAGUCAAGGGAGAGGCGAAAGUCACACAAACCGG	0.0126
GUGCCUUGCGCCGGGAAACCACGCAAGGGAUGGUGUCAAAUUCGGCGAAACCUAAGCGCCCGCCCGGGCGUAUGGCAACGCAGAGCCAAGCUUCGGCGCCUGCGCCGAUGAAGGUGUAGCGACUAGACGGCACCCACCUAAGGCAAACGAUAUGGUGAAGGCAUAGUCUAGGGAGUGGCGAAAGUCACACAAACCGG	0.0147
GUGCCUUGCGCCGGGAAACCACGCAAGGGAUGGUGUCAAAUUCGGCGAAACCUAAGCGCCCGCCCGGGCGUAUGGCAACGCAGAGCCAAGCUUCGGCGCCUGCGCCGAUGAAGGUGUAGCGACUAGACGGCACCCACCUAAGGCAAACGAUAUGGUGAAGGCAUAGUCGAGGGAGUGGCGAAAGUCACACAAACCGG	0.0106
GUGCCUUGCGCCGGGAAACCACGCAAGGGAUGGUGUCAAAUUCGGCGAAACCUAAGCGCCCGCCCGGGCGUAUGGCAACGCAGAGCCAAGCUUCGGCGCCUGCGCCGAUGAAGGUGUAGCGACUAGACGGCACCCACCUAAGGCAAACGAUAUGGUGAAGGCAUAGUCAAGGGAGUGGCGAAAGUCACACAAACCGG	0.0115
GUGCCUUGCGCCGGGAAACCACGCAAGGGAUGGUGUCAAAUUCGGCGAAACCUAAGCGCCCGCCCGGGCGUAUGGCAACGCAGAGCCAAGCUUCGGCGCCUGCGCCGAUGAAGGUGUAGCGACUAGACGGCACCCACCUAAGGCAAACGAUAUGGUGAAGGCAUAGUCGAGGGAGGGGCGAAAGUCACACAAACCGG	0.00627
GUGCCUUGCGCCGGGAAACCACGCAAGGGAUGGUGUCAAAUUCGGCGAAACCUAAGCGCCCGCCCGGGCGUAUGGCAACGCAGAGCCAAGCUUCGGCGCCUGCGCCGAUGAAGGUGUAGCGACUAGACGGCACCCACCUAAGGCAAACGAUAUGGUGAAGGCAUAGUCGAGGGAGAGGCGAAAGUCACACAAACCGG	0.021
GUGCCUUGCGCCGGGAAACCACGCAAGGGAUGGUGUCAAAUUCGGCGAAACCUAAGCGCCCGCCCGGGCGUAUGGCAACGCAGAGCCAAGCUUCGGCGCCUGCGCCGAUGAAGGUGUAGCGACUAGACGGCACCCACCUAAGGCAAACGAUAUGGUGAAGGCAUAGUCGAGGGAGCGGCGAAAGUCACACAAACCGG	0.0258
GUGCCUUGCGCCGGGAAACCACGCAAGGGAUGGUGUCAAAUUCGGCGAAACCUAAGCGCCCGCCCGGGCGUAUGGCAACGCAGAGCCAAGCUUCGGCGCCUGCGCCGAUGAAGGUGUAGCGACUAGACGGCACCCACCUAAGGCAAACGGUAUGGUGAAGGCAUAGUCUAGGGAGAGGCGAAAGUCACACAAACCGG	0.00617
GUGCCUUGCGCCGGGAAACCACGCAAGGGAUGGUGUCAAAUUCGGCGAAACCUAAGCGCCCGCCCGGGCGUAUGGCAACGCAGAGCCAAGCUUCGGCGCCUGCGCCGAUGAAGGUGUAGCGACUAGACGGCACCCACCUAAGGCAAACGGUAUGGUGAAGGCAUAGUCGAGGGAGUGGCGAAAGUCACACAAACCGG	0.00866
GUGCCUUGCGCCGGGAAACCACGCAAGGGAUGGUGUCAAAUUCGGCGAAACCUAAGCGCCCGCCCGGGCGUAUGGCAACGCAGAGCCAAGCUUCGGCGCCUGCGCCGAUGAAGGUGUAGCGACUAGACGGCACCCACCUAAGGCAAACGGUAUGGUGAAGGCAUAGUCAAGGGAGUGGCGAAAGUCACACAAACCGG	0.0112
GUGCCUUGCGCCGGGAAACCACGCAAGGGAUGGUGUCAAAUUCGGCGAAACCUAAGCGCCCGCCCGGGCGUAUGGCAACGCAGAGCCAAGCUUCGGCGCCUGCGCCGAUGAAGGUGUAGCGACUAGACGGCACCCACCUAAGGCAAACGGUAUGGUGAAGGCAUAGUCUAGGGAGUGGCGAAAGUCACACAAACCGG	0.0104
GUGCCUUGCGCCGGGAAACCACGCAAGGGAUGGUGUCAAAUUCGGCGAAACCUAAGCGCCCGCCCGGGCGUAUGGCAACGCAGAGCCAAGCUUCGGCGCCUGCGCCGAUGAAGGUGUAGCGACUAGACGGCACCCACCUAAGGCAAACGAUAUGGUGAAGGCAUAGUCUAGGGAGAGGCGAAAGUCACACAAACCGG	0.0176
GUGCCUUGCGCCGGGAAACCACGCAAGGGAUGGUGUCAAAUUCGGCGAAACCUAAGCGCCCGCCCGGGCGUAUGGCAACGCAGAGCCAAGCUUCGGCGCCUGCGCCGAUGAAGGUGUAGCGACUAGACGGCACCCACCUAAGGCAAACGAUAUGGUGAAGGCAUAGUCUAGGGAGCGGCGAAAGUCACACAAACCGG	0.0137
GUGCCUUGCGCCGGGAAACCACGCAAGGGAUGGUGUCAAAUUCGGCGAAACCUAAGCGCCCGCCCGGGCGUAUGGCAACGCAGAGCCAAGCUUCGGCGCCUGCGCCGAUGAAGGUGUAGCGACUAGACGGCACCCACCUAAGGCAAACGAUAUGGUGAAGGCAUAGUCUAGGGAGGGGCGAAAGUCACACAAACCGG	0.00644
GUGCCUUGCGCCGGGAAACCACGCAAGGGAUGGUGUCAAAUUCGGCGAAACCUAAGCGCCCGCCCGGGCGUAUGGCAACGCAGAGCCAAGCUUCGGCGCCUGCGCCGAUGAAGGUGUAGCGACUAGACGGCACCCACCUAAGGCUAACGCUAUGGUGAAGGCAUAGUCCAGGGAGCGGCGAAAGUCACACAAACCGG	0.0639
GUGCCUUGCGCCGGGAAACCACGCAAGGGAUGGUGUCAAAUUCGGCGAAACCUAAGCGCCCGCCCGGGCGUAUGGCAACGCAGAGCCAAGCUUCGGCGCCUGCGCCGAUGAAGGUGUAGCGACUAGACGGCACCCACCUAAGGCUAACGCUAUGGUGAAGGCAUAGUCCAGGGAGAGGCGAAAGUCACACAAACCGG	0.0383
GUGCCUUGCGCCGGGAAACCACGCAAGGGAUGGUGUCAAAUUCGGCGAAACCUAAGCGCCCGCCCGGGCGUAUGGCAACGCAGAGCCAAGCUUCGGCGCCUGCGCCGAUGAAGGUGUAGCGACUAGACGGCACCCACCUAAGGCUAACGCUAUGGUGAAGGCAUAGUCCAGGGAGGGGCGAAAGUCACACAAACCGG	0.00885
GUGCCUUGCGCCGGGAAACCACGCAAGGGAUGGUGUCAAAUUCGGCGAAACCUAAGCGCCCGCCCGGGCGUAUGGCAACGCAGAGCCAAGCUUCGGCGCCUGCGCCGAUGAAGGUGUAGCGACUAGACGGCACCCACCUAAGGCAAACGGUAUGGUGAAGGCAUAGUCGAGGGAGCGGCGAAAGUCACACAAACCGG	0.00601
GUGCCUUGCGCCGGGAAACCACGCAAGGGAUGGUGUCAAAUUCGGCGAAACCUAAGCGCCCGCCCGGGCGUAUGGCAACGCAGAGCCAAGCUUCGGCGCCUGCGCCGAUGAAGGUGUAGCGACUAGACGGCACCCACCUAAGGCAAACGGUAUGGUGAAGGCAUAGUCGAGGGAGAGGCGAAAGUCACACAAACCGG	0.00779
GUGCCUUGCGCCGGGAAACCACGCAAGGGAUGGUGUCAAAUUCGGCGAAACCUAAGCGCCCGCCCGGGCGUAUGGCAACGCAGAGCCAAGCUUCGGCGCCUGCGCCGAUGAAGGUGUAGCGACUAGACGGCACCCACCUAAGGCAAACGGUAUGGUGAAGGCAUAGUCGAGGGAGGGGCGAAAGUCACACAAACCGG	0.00605
GUGCCUUGCGCCGGGAAACCACGCAAGGGAUGGUGUCAAAUUCGGCGAAACCUAAGCGCCCGCCCGGGCGUAUGGCAACGCAGAGCCAAGCUUCGGCGCCUGCGCCGAUGAAGGUGUAGCGACUAGACGGCACCCACCUAAGGCAAACGAUAUGGUGAAGGCAUAGUCCAGGGAGAGGCGAAAGUCACACAAACCGG	0.0151
GUGCCUUGCGCCGGGAAACCACGCAAGGGAUGGUGUCAAAUUCGGCGAAACCUAAGCGCCCGCCCGGGCGUAUGGCAACGCAGAGCCAAGCUUCGGCGCCUGCGCCGAUGAAGGUGUAGCGACUAGACGGCACCCACCUAAGGCAAACGAUAUGGUGAAGGCAUAGUCCAGGGAGCGGCGAAAGUCACACAAACCGG	0.0248
GUGCCUUGCGCCGGGAAACCACGCAAGGGAUGGUGUCAAAUUCGGCGAAACCUAAGCGCCCGCCCGGGCGUAUGGCAACGCAGAGCCAAGCUUCGGCGCCUGCGCCGAUGAAGGUGUAGCGACUAGACGGCACCCACCUAAGGCAAACGAUAUGGUGAAGGCAUAGUCCAGGGAGGGGCGAAAGUCACACAAACCGG	0.00826
GUGCCUUGCGCCGGGAAACCACGCAAGGGAUGGUGUCAAAUUCGGCGAAACCUAAGCGCCCGCCCGGGCGUAUGGCAACGCAGAGCCAAGCUUCGGCGCCUGCGCCGAUGAAGGUGUAGCGACUAGACGGCACCCACCUAAGGCAAACGAUAUGGUGAAGGCAUAGUCCAGGGAGUGGCGAAAGUCACACAAACCGG	0.0224
GUGCCUUGCGCCGGGAAACCACGCAAGGGAUGGUGUCAAAUUCGGCGAAACCUAAGCGCCCGCCCGGGCGUAUGGCAACGCAGAGCCAAGCUUCGGCGCCUGCGCCGAUGAAGGUGUAGCGACUAGACGGCACCCACCUAAGGCAAACGGUAUGGUGAAGGCAUAGUCCAGGGAGUGGCGAAAGUCACACAAACCGG	0.0157
